This is an account of results in paper PMC8548535, “Kinetic and structural roles for the surface in guiding SAS-6 self-assembly to direct centriole architecture” (Nature Communications, 2021).

Series [1] concerns the molecule itself. As to the kind of experiment: circular dichroism, concentration series; monomer to dimer; CD signal at 222 nm at varying protein concentrations, 20 °C, 20 mM potassium phosphate pH 8.0, 150 mM NaF, fitted with a two-state association model. On the technique in general: Circular dichroism is the unequal absorption of left and right circularly polarised light.

Series [2] concerns the molecule itself. Briefly: high-speed atomic force microscopy (PORT-HS-AFM); homodimer with homodimer (and higher oligomers, rings) adsorbed on a mica surface; 20 mM Tris-HCl, 150 mM KCl, pH 7.4, 6-10 °C; ~120 nM in solution (~14 nM pre-incubated on mica for ring opening and closing); effective surface constants, Kd from a fit of a coagulation-fragmentation model.

B1: Chlamydomonas reinhardtii SAS-6[NL] (CrSAS-6[NL], amino acids 1-503) (domain or fragment, UniProt A9CQL4 1-503, looked up)
chain: MPLLLDDGDPKAQTGFDLSTATTLFWRPVPVHVKQQDREDVLEELTFRILTGVAKQNHNLRILRIHISSDSDLFFLHTLEVSEEDFQSLKNDQGILVDFASFPGKIISLLEKCILAQPGDSPRFQAVLTIRGGESVFKIVEINDFKQLPHITLAFRPGNDSVVKQFLAFRLSEVKGTCHDLSDDLSRTRDDRDSMVAQLAQCRQQLAQLREQYDKHLLEVQAQAKTQQASAHEERIREKSQLKDQFEKERGEMEGRYRDQIAALNTRLGELDTENRKLREVKYELDTKVSELSHKLGSSEGSNRSLEEETARLRSLNQQLSSSKHELEIQLNEAKAKVLALDEKAQSQGDVIEQQRGRLRDMEAALRQTEQRCADLRDTLASAEGRAKEAQAEVLKGNQAIEKLTNDLRLAKEKTKRKAAIILRQEEELQEREQSLANATRDVGVLGQQAESLRKDVASLHSENDSLRSKLEDSKQQLQSNEQMIRWLNQQVTEAQLHASGAT
notes: SAS-6 of Chlamydomonas reinhardtii, amino acids 1-503: globular N-terminal head domain and the coiled-coil (spokes), without the unstructured C-terminal moiety; Forms a homodimer through its coiled coil (monomer-dimer Kd measured here); source: E. coli BL21(DE3), purified (HisTrap Ni2+-Sepharose, PreScission cleavage, reverse HisTrap, SEC Superdex 200)
Regarding B1, in series [1], the Kd – broadly, the constant that tells how readily two partners part at equilibrium – is ~20 nM. In addition, the stoichiometry N (in general, a count of units in the complex or per binding partner) in series [2] fell in the range of 7 to 10 homodimers.
